Test results: the supplement of paper PMC9112550, “Optimization of the antimicrobial peptide Bac7 by deep mutational scanning” (BMC Biology, 2022)

Test system: Escherichia coli TOP10
Assay: shrunken log2 fold change of peptide-encoding DNA abundance (4.5 h post-induction vs induction); higher = less antimicrobial activity (less host growth inhibition)
Conditions: time post-induction: 4.5 h; library: site-saturation at positions 5, 18, 19, 20
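Note: peptides expressed intracellularly from a pBAD plasmid library in pooled LB shake-flask culture, induced with 0.3% L-arabinose, DNA abundance read by NGS, three biological replicates, DESeq2 with apeglm shrinkage.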

| Sequence | shrunken log2 fold change |
| --- | --- |
| RRIRERPPRLPRPRPRPDRAPRP | 0.00194 |
| RRIRNRPPRLPRPRPRPSNHPRP | -0.603 |
| RRIRSRPPRLPRPRPRPFNLPRP | -0.218 |
| RRIRPRPPRLPRPRPRPVMYPRP | -0.0963 |
| RRIRARPPRLPRPRPRPVNRPRP | 0.277 |
| RRIRCRPPRLPRPRPRPKMAPRP | 0.0796 |
| RRIRCRPPRLPRPRPRPLTKPRP | 0.291 |
| RRIRMRPPRLPRPRPRPMCFPRP | 0.271 |
| RRIRKRPPRLPRPRPRPRCEPRP | 0.568 |
| RRIRTRPPRLPRPRPRPDVRPRP | -0.31 |
| RRIRPRPPRLPRPRPRPDQYPRP | -0.114 |
| RRIRARPPRLPRPRPRPNNGPRP | 0.00213 |
| RRIRWRPPRLPRPRPRPNEVPRP | 0.0902 |
| RRIRARPPRLPRPRPRPGCGPRP | 0.887 |
| RRIRARPPRLPRPRPRPGRYPRP | 0.54 |
| RRIRCRPPRLPRPRPRPEAMPRP | 0.536 |
| RRIRERPPRLPRPRPRPHMYPRP | -0.577 |
| RRIRHRPPRLPRPRPRPCWSPRP | -0.166 |
| RRIRLRPPRLPRPRPRPCHLPRP | 0.0143 |
| RRIRIRPPRLPRPRPRPMWLPRP | -0.233 |
| RRIRYRPPRLPRPRPRPPFAPRP | 0.0915 |
| RRIRTRPPRLPRPRPRPNATPRP | 0.469 |
| RRIRIRPPRLPRPRPRPASRPRP | -0.106 |
| RRIRWRPPRLPRPRPRPRVGPRP | 0.563 |
| RRIRPRPPRLPRPRPRPLNGPRP | -0.0765 |

| Sequence | shrunken log2 fold change |
| --- | --- |
| RRIRTRPPRLPRPRPRPPKTPRP | 0.142 |
| RRIRRRPPRLPRPRPRPLYWPRP | 0.0153 |
| RRIRCRPPRLPRPRPRPRRHPRP | -0.0331 |
| RRIRMRPPRLPRPRPRPAMSPRP | 0.177 |
| RRIRWRPPRLPRPRPRPRHPPRP | 0.382 |
| RRIRNRPPRLPRPRPRPVKHPRP | -0.23 |
| RRIRMRPPRLPRPRPRPLRCPRP | 1.61 |
| RRIRRRPPRLPRPRPRPMALPRP | 5.63e-05 |
| RRIRQRPPRLPRPRPRPTQWPRP | 0.571 |
| RRIRYRPPRLPRPRPRPVMYPRP | -0.134 |
| RRIRYRPPRLPRPRPRPKPPPRP | 0.524 |
| RRIRNRPPRLPRPRPRPCPTPRP | -0.0624 |
| RRIRHRPPRLPRPRPRPSGQPRP | -0.17 |
| RRIRSRPPRLPRPRPRPQSEPRP | -0.0306 |
| RRIRLRPPRLPRPRPRPPTNPRP | 0.177 |
| RRIRERPPRLPRPRPRPCSAPRP | -0.0881 |
| RRIRHRPPRLPRPRPRPLCRPRP | 0.0244 |
| RRIRERPPRLPRPRPRPTQGPRP | 0.555 |
| RRIRCRPPRLPRPRPRPDWSPRP | 0.0534 |
| RRIRQRPPRLPRPRPRPRKMPRP | -0.0294 |
| RRIRSRPPRLPRPRPRPDGPPRP | 0.0211 |
| RRIRGRPPRLPRPRPRPRFIPRP | 0.123 |
| RRIRKRPPRLPRPRPRPNCWPRP | 0.621 |
| RRIRFRPPRLPRPRPRPTRKPRP | 0.516 |
| RRIRSRPPRLPRPRPRPDLMPRP | -0.0144 |

| Sequence | shrunken log2 fold change |
| --- | --- |
| RRIRFRPPRLPRPRPRPRSAPRP | 0.379 |
| RRIRPRPPRLPRPRPRPSNNPRP | -0.542 |
| RRIRSRPPRLPRPRPRPCIFPRP | -0.471 |
| RRIRDRPPRLPRPRPRPRGGPRP | 0.726 |
| RRIRQRPPRLPRPRPRPVCVPRP | 0.18 |
| RRIRCRPPRLPRPRPRPCAGPRP | 0.039 |
| RRIRIRPPRLPRPRPRPNRHPRP | -0.0899 |
| RRIRPRPPRLPRPRPRPFWFPRP | -0.0717 |
| RRIRKRPPRLPRPRPRPKYCPRP | -0.632 |
| RRIRNRPPRLPRPRPRPHMLPRP | -0.954 |
| RRIRPRPPRLPRPRPRPQCLPRP | 0.0368 |
| RRIRQRPPRLPRPRPRPRRGPRP | 0.502 |
| RRIRCRPPRLPRPRPRPLMIPRP | -0.431 |
| RRIRYRPPRLPRPRPRPEWVPRP | -0.0265 |
| RRIRTRPPRLPRPRPRPKNDPRP | -0.362 |
| RRIRLRPPRLPRPRPRPCYWPRP | -0.317 |
| RRIRLRPPRLPRPRPRPPNPPRP | 0.423 |
| RRIRRRPPRLPRPRPRPMKKPRP | -0.0239 |
| RRIRGRPPRLPRPRPRPPQYPRP | 0.38 |
| RRIRMRPPRLPRPRPRPIYYPRP | -0.51 |
| RRIRSRPPRLPRPRPRPDTAPRP | -0.0215 |
| RRIRKRPPRLPRPRPRPQVRPRP | -0.117 |
| RRIRERPPRLPRPRPRPPTMPRP | -0.151 |
| RRIRARPPRLPRPRPRPYVPPRP | -0.114 |
| RRIRLRPPRLPRPRPRPCMPPRP | -0.579 |

| Sequence | shrunken log2 fold change |
| --- | --- |
| RRIRKRPPRLPRPRPRPRICPRP | 0.0539 |
| RRIRVRPPRLPRPRPRPTDTPRP | 0.817 |
| RRIRERPPRLPRPRPRPLQRPRP | -0.131 |
| RRIRFRPPRLPRPRPRPCMNPRP | 0.0346 |
| RRIRHRPPRLPRPRPRPSIKPRP | -0.501 |
| RRIRNRPPRLPRPRPRPGYQPRP | -0.0454 |
| RRIRGRPPRLPRPRPRPMVCPRP | 0.55 |
| RRIRVRPPRLPRPRPRPEDPPRP | 0.476 |
| RRIRARPPRLPRPRPRPECGPRP | 1.23 |
| RRIRARPPRLPRPRPRPWILPRP | 0.223 |
| RRIRARPPRLPRPRPRPFLMPRP | 0.791 |
| RRIRSRPPRLPRPRPRPKLRPRP | 0.111 |
| RRIRLRPPRLPRPRPRPMNLPRP | -0.31 |
| RRIRARPPRLPRPRPRPPNKPRP | 0.23 |
| RRIRSRPPRLPRPRPRPSLMPRP | -0.201 |
| RRIRLRPPRLPRPRPRPACMPRP | 0.00459 |
| RRIRNRPPRLPRPRPRPEFKPRP | -0.0932 |
| RRIRNRPPRLPRPRPRPMYQPRP | -0.201 |
| RRIRSRPPRLPRPRPRPHPMPRP | -0.236 |
| RRIRYRPPRLPRPRPRPMPWPRP | -0.0575 |
| RRIRTRPPRLPRPRPRPQNFPRP | -0.18 |
| RRIRNRPPRLPRPRPRPTCKPRP | -0.0431 |
| RRIRQRPPRLPRPRPRPRCFPRP | -0.0694 |
| RRIRPRPPRLPRPRPRPMQCPRP | 0.00596 |
| RRIRLRPPRLPRPRPRPVYLPRP | -1.14 |

| Sequence | shrunken log2 fold change |
| --- | --- |
| RRIRARPPRLPRPRPRPWYDPRP | -0.32 |
| RRIRTRPPRLPRPRPRPTGRPRP | 0.099 |
| RRIRDRPPRLPRPRPRPVPKPRP | 0.32 |
| RRIRRRPPRLPRPRPRPFPHPRP | 0.292 |
| RRIRLRPPRLPRPRPRPYAWPRP | 0.0863 |
| RRIRARPPRLPRPRPRPCCIPRP | 0.13 |
| RRIRKRPPRLPRPRPRPHFLPRP | 0.12 |
| RRIRQRPPRLPRPRPRPHAYPRP | -0.352 |
| RRIRLRPPRLPRPRPRPQDCPRP | 0.0274 |
| RRIRWRPPRLPRPRPRPMEFPRP | -0.145 |
| RRIRARPPRLPRPRPRPLNGPRP | 0.0986 |
| RRIRDRPPRLPRPRPRPNCGPRP | 0.387 |
| RRIRPRPPRLPRPRPRPDFWPRP | 0.527 |
| RRIRARPPRLPRPRPRPLSMPRP | -0.129 |
| RRIRLRPPRLPRPRPRPMMRPRP | 0.196 |
| RRIRYRPPRLPRPRPRPDHPPRP | 0.0184 |
| RRIRPRPPRLPRPRPRPMYRPRP | -0.752 |
| RRIRWRPPRLPRPRPRPMLDPRP | 0.426 |
| RRIRGRPPRLPRPRPRPLISPRP | 0.364 |
| RRIRNRPPRLPRPRPRPQDWPRP | -0.133 |
| RRIRIRPPRLPRPRPRPRKTPRP | 0.13 |
| RRIRTRPPRLPRPRPRPFQLPRP | -0.138 |
| RRIRHRPPRLPRPRPRPRKYPRP | -0.556 |
| RRIRCRPPRLPRPRPRPRASPRP | 0.282 |
| RRIRLRPPRLPRPRPRPVNPPRP | 0.0818 |
